Measured values from patent publication EP4628104A1 (Shanghai Chia Tai Tianqing Pharmaceutical Technology …, dated 2024).
Numbering of substitutions follows the chain as printed.

Tests used:
human CLDN18.2 [1] = target: T1, human CLDN18.2 (human); experiment: flow cytometry, CLDN18.2-overexpressing NIH-3T3 cells
T1 construct: The construct in the CLDN18.2-overexpressing BxPC-3 and NCI-N87 lines is not described; KATOIII and NUGC-4 express CLDN18.2 naturally; All are written here as this one molecule; also called Claudin 18.2; tight junction protein 18.2
T1 sequence (chain, as listed by the source limits assumed): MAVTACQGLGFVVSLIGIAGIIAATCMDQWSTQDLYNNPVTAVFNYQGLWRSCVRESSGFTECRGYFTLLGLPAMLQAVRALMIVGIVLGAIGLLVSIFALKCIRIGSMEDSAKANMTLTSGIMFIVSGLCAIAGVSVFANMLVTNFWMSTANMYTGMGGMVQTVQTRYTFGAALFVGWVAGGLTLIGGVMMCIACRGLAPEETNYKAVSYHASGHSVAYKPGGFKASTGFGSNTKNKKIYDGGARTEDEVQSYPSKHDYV

human CLDN18.2 [2] = target: T1, human CLDN18.2; experiment: cell-based or functional assay
human CLDN18.2 [3] = target: T1, human CLDN18.2; experiment: cell-based or functional assay; remark: listed apart in the source
human CLDN18.2 [4] = target: T1, human CLDN18.2; experiment: cell-based or functional assay; remark: listed apart in the source
human CLDN18.2 [5] = target: T1, human CLDN18.2; experiment: flow cytometry, CLDN18.2-overexpressing BxPC-3 cells
human CLDN18.2 [6] = target: T1, human CLDN18.2; experiment: flow cytometry, CLDN18.2-overexpressing NCI-N87 cells

B1: hz28G3-1.1-DDDXd (with DAR of 7.4) (antibody, human IgG1, kappa, DAR 7.4, V domains shown)
VH: QVQLVQSGAEVKKPGASVKVSCKTSGYSFTDYLMLWVRQAPGQGLEWMGNINPYYGRTTYALKFKGRVTMTVDRSTSTVYMELSSLRSEDTAVYYCARDGYSLRNAMDYWGQGTLVTVSS
VL: DIVMTQSPDSLAVSLGERATINCKSSQSLFNSGNQKNYLAWYQQKPGQPPKLLIYGASTRESGVPDRFSGSGSGTDFTLTISSLQAEDVAVYYCQNAHSYPYTFGQGTKVEIKR
modifications: linker-payload MC-GGFG-DDDXd (compound H) conjugated to cysteines of the reduced inter-chain disulfide bonds; positions not given; linker-payload MC-GGFG-DDDXd (compound H) conjugated to cysteines of the reduced inter-chain disulfide bonds; positions not given; DAR 7.4 for the whole molecule
notes: also called anti-CLDN18.2 antibody-drug conjugate
EC50 (human CLDN18.2 [1]): 0.896 nM
CDC activity IC50, CLDN18.2-overexpressing NIH-3T3 cells with human complement (human CLDN18.2 [2]): ~0.352 nM
Endocytosis EC50, CLDN18.2-overexpressing NCI-N87 cells (human CLDN18.2 [3]): 4.41 nM
Endocytosis EC50, CLDN18.2-overexpressing NIH-3T3 cells (human CLDN18.2 [3]): 3.69 nM
Killing activity IC50 (CellTiter-Glo), CLDN18.2-overexpressing BxPC-3 cells (human CLDN18.2 [4]): 0.125 nM
Killing activity IC50 (CellTiter-Glo), CLDN18.2-overexpressing NCI-N87 cells (human CLDN18.2 [4]): 0.0381 nM
Killing activity IC50 (CellTiter-Glo), CLDN18.2-overexpressing NIH-3T3 cells (human CLDN18.2 [4]): 0.44 nM
EC50 (human CLDN18.2 [5]): 1.13 nM
EC50 (human CLDN18.2 [6]): 1.17 nM

B2: humanized antibody hz28G3-1.1 (antibody, human IgG1, kappa, V domains shown)
VH: B1 VH
VL: B1 VL
notes: Naked humanized anti-CLDN18.2 antibody, human IgG1 / kappa, expressed in CHO cells
EC50 (human CLDN18.2 [1]): 2.27 nM
Endocytosis EC50, CLDN18.2-overexpressing NCI-N87 cells (human CLDN18.2 [3]): 7.84 nM
Endocytosis EC50, CLDN18.2-overexpressing NIH-3T3 cells (human CLDN18.2 [3]): 2.57 nM
EC50 (human CLDN18.2 [5]): 2.63 nM
EC50 (human CLDN18.2 [6]): 2.61 nM

B3: humanized antibody hz28G3-1.3 (antibody, human IgG1, kappa, V domains shown)
VH: B1 VH with P41H, G44S
VL: B1 VL
notes: as for B2
EC50 (human CLDN18.2 [1]): 1.76 nM
Endocytosis EC50, CLDN18.2-overexpressing NCI-N87 cells (human CLDN18.2 [3]): 6.68 nM
Endocytosis EC50, CLDN18.2-overexpressing NIH-3T3 cells (human CLDN18.2 [3]): 4.26 nM
EC50 (human CLDN18.2 [5]): 3.42 nM
EC50 (human CLDN18.2 [6]): 2.73 nM

B4: hz28G3-1.3-DDDXd (with DAR of 7.6) (antibody, human IgG1, kappa, DAR 7.6, V domains shown)
VH: B1 VH with P41H, G44S
VL: B1 VL
modifications: linker-payload MC-GGFG-DDDXd (compound H) conjugated to cysteines of the reduced inter-chain disulfide bonds; positions not given; linker-payload MC-GGFG-DDDXd (compound H) conjugated to cysteines of the reduced inter-chain disulfide bonds; positions not given; DAR 7.6 for the whole molecule
notes: as for B1
EC50 (human CLDN18.2 [1]): 0.593 nM
CDC activity IC50, CLDN18.2-overexpressing NIH-3T3 cells with human complement (human CLDN18.2 [2]): ~0.352 nM
Endocytosis EC50, CLDN18.2-overexpressing NCI-N87 cells (human CLDN18.2 [3]): 3.24 nM
Endocytosis EC50, CLDN18.2-overexpressing NIH-3T3 cells (human CLDN18.2 [3]): 1.85 nM
Killing activity IC50 (CellTiter-Glo), CLDN18.2-overexpressing BxPC-3 cells (human CLDN18.2 [4]): 0.0886 nM
Killing activity IC50 (CellTiter-Glo), CLDN18.2-overexpressing NCI-N87 cells (human CLDN18.2 [4]): 0.0337 nM
Killing activity IC50 (CellTiter-Glo), CLDN18.2-overexpressing NIH-3T3 cells (human CLDN18.2 [4]): 0.281 nM
EC50 (human CLDN18.2 [5]): 0.946 nM
EC50 (human CLDN18.2 [6]): 1.02 nM
